# Results: patent publication US20090068637A1 (published 2009)
# T1: fusion protein HBc-D123 (HBV)
# T1 chain: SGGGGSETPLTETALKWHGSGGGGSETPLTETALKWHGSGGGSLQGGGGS
# T2: fusion protein HBc-D125 (HBV)
# T2 chain: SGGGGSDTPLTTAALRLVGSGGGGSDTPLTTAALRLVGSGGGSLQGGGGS
# T3: fusion protein HBc-122 (HBV)
# T3 chain: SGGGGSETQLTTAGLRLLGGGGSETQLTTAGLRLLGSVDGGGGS
# T4: fusion protein HBc-124 (HBV)
# T4 chain: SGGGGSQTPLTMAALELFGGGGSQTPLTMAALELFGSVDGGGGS
# T5: fusion protein HBc-128 (HBV)
# T5 chain: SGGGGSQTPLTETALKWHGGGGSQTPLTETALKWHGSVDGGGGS
# B1: monoclonal antibody 2F2 (antibody, V domains shown)
# VH: QVQLKESGPGLVAPSQRLSITCTVSGFSLTGYGVHWIRQSPGKGLEWLGMIWAEGRTDYNSVLKSRLSINKDNSRSQVFLEMNSLQTDDTARYYCAREVITTEAWYFDVWGQGTSVTES
# VL: DIVMTQSPATLSVTPGDRVSLSCRASQSISDYLYWYQQKSHESPRLLIKYASQSISGIPSRFSGSGSGSDFTLTINSVEPEDVGMYYCQNGHTFPLTFGAGTKLEIKR
# B2: monoclonal antibody 8H5 (antibody, V domains shown)
# VH: QVQLQQSGAELMKPGASVKISCKATGYTFSNYWIEWIKQRPGHGLEWIGEILPGSDRTNYNGKFKGKATFTADTSSNTAHMQLSSLTSEDSAVYYCANRYDGYYFGLDYWGQGTSVAVSS
# VL: EIVLTQSPAIMSASLGEKVTMSCRASSSVNFVYWYQQRSDASPKLLIYYSSNLAPGVPPRFSGSGSGNSYSLTISGLEGEDAATYYCQHFTSSPYTFGGGTNLEIKR
# What was measured:
# [1] = target: T6, HA of H5N1 virus strain GD1 (avian influenza virus H5N1); experiment: cell-based or functional assay
# [2] = target: T7, HA of H5N1 virus strain VTM2 (avian influenza virus H5N1); experiment: cell-based or functional assay
# [3] = target: T8, HA of H5N1 virus strain GD3 (avian influenza virus H5N1); experiment: cell-based or functional assay
# [4] = target: T9, HA of H5N1 virus strain GD2 (avian influenza virus H5N1); experiment: cell-based or functional assay
# [5] = target: T10, HA of H5N1 virus strain IDN3 (avian influenza virus H5N1); experiment: cell-based or functional assay
# [6] = target: T11, HA of H5N1 virus strain MIX3 (avian influenza virus H5N1); experiment: cell-based or functional assay
# [7] = target: T12, HA of H5N1 virus strain IDN1.1 (avian influenza virus H5N1); experiment: cell-based or functional assay
# [8] = target: T13, HA of H5N1 virus strain MB2 (avian influenza virus H5N1); experiment: cell-based or functional assay
# [9] = target: T14, HA of H5N1 virus strain IDN5 (avian influenza virus H5N1); experiment: cell-based or functional assay
# [10] = target: T15, HA of H5N1 virus strain MIX1 (avian influenza virus H5N1); experiment: cell-based or functional assay
# [11] = target: T16, HA of H5N1 virus strain IDN2 (avian influenza virus H5N1); experiment: cell-based or functional assay
# [12] = target: T17, HA of H5N1 virus strain MB1 (avian influenza virus H5N1); experiment: cell-based or functional assay
# [13] = target: T18, HA of H5N1 virus strain VTM3 (avian influenza virus H5N1); experiment: cell-based or functional assay
# [14] = target: T19, HA of H5N1 virus strain HN1 (avian influenza virus H5N1); experiment: cell-based or functional assay
# [15] = target: T20, HA of H5N1 virus strain VNM2.1 (avian influenza virus H5N1); experiment: cell-based or functional assay
# [16] = target: T21, HA of H5N1 virus strain YN1 (avian influenza virus H5N1); experiment: cell-based or functional assay
# [17] = target: T22, HA of H5N1 virus strain HN2 (avian influenza virus H5N1); experiment: cell-based or functional assay
# [18] = target: T23, HA of H5N1 virus strain VTM4 (avian influenza virus H5N1); experiment: cell-based or functional assay
# [19] = target: T24, HA of H5N1 virus strain VTM1.1 (avian influenza virus H5N1); experiment: cell-based or functional assay
# [20] = target: T25, HA of H5N1 virus strain IDN4 (avian influenza virus H5N1); experiment: cell-based or functional assay
# [21] = target: T26, HA of H5N1 virus strain MIX2 (avian influenza virus H5N1); experiment: cell-based or functional assay
# [22] = target: T6, HA of H5N1 virus strain GD1; experiment: cell-based or functional assay; remark: listed apart in the source
# [23] = target: T7, HA of H5N1 virus strain VTM2; experiment: cell-based or functional assay; remark: listed apart in the source
# [24] = target: T8, HA of H5N1 virus strain GD3; experiment: cell-based or functional assay; remark: listed apart in the source
# [25] = target: T9, HA of H5N1 virus strain GD2; experiment: cell-based or functional assay; remark: listed apart in the source
# [26] = target: T11, HA of H5N1 virus strain MIX3; experiment: cell-based or functional assay; remark: listed apart in the source
# [27] = target: T12, HA of H5N1 virus strain IDN1.1; experiment: cell-based or functional assay; remark: listed apart in the source
# [28] = target: T13, HA of H5N1 virus strain MB2; experiment: cell-based or functional assay; remark: listed apart in the source
# [29] = target: T14, HA of H5N1 virus strain IDN5; experiment: cell-based or functional assay; remark: listed apart in the source
# [30] = target: T15, HA of H5N1 virus strain MIX1; experiment: cell-based or functional assay; remark: listed apart in the source
# [31] = target: T16, HA of H5N1 virus strain IDN2; experiment: cell-based or functional assay; remark: listed apart in the source
# [32] = target: T18, HA of H5N1 virus strain VTM3; experiment: cell-based or functional assay; remark: listed apart in the source
# [33] = target: T19, HA of H5N1 virus strain HN1; experiment: cell-based or functional assay; remark: listed apart in the source
# [34] = target: T20, HA of H5N1 virus strain VNM2.1; experiment: cell-based or functional assay; remark: listed apart in the source
# [35] = target: T22, HA of H5N1 virus strain HN2; experiment: cell-based or functional assay; remark: listed apart in the source
# [36] = target: T23, HA of H5N1 virus strain VTM4; experiment: cell-based or functional assay; remark: listed apart in the source
# [37] = target: T24, HA of H5N1 virus strain VTM1.1; experiment: cell-based or functional assay; remark: listed apart in the source
# [38] = target: T25, HA of H5N1 virus strain IDN4; experiment: cell-based or functional assay; remark: listed apart in the source
# [39] = target: T26, HA of H5N1 virus strain MIX2; experiment: cell-based or functional assay; remark: listed apart in the source
# [40] = target: T1, fusion protein HBc-D123; experiment: ELISA, fusion protein coated at 10 ug/ml
# [41] = target: T2, fusion protein HBc-D125; experiment: ELISA, fusion protein coated at 10 ug/ml
# [42] = target: T10, HA of H5N1 virus strain IDN3; experiment: cell-based or functional assay; remark: listed apart in the source
# [43] = target: T17, HA of H5N1 virus strain MB1; experiment: cell-based or functional assay; remark: listed apart in the source
# [44] = target: T21, HA of H5N1 virus strain YN1; experiment: cell-based or functional assay; remark: listed apart in the source
# [45] = target: T3, fusion protein HBc-122; experiment: indirect ELISA, fusion protein coated at 10 ug/ml, 12 mAb tested
# [46] = target: T4, fusion protein HBc-124; experiment: as above
# [47] = target: T5, fusion protein HBc-128; experiment: as above
binder,measurement,setting,value
B1,HI titer,[1],12800 titer
same,HI titer,[2],3200 titer
same,HI titer,[3],12800 titer
same,HI titer,[4],12800 titer
same,HI titer,[5],1600 titer
same,HI titer,[6],12800 titer
same,HI titer,[7],12800 titer
same,HI titer,[8],6400 titer
same,HI titer,[9],12800 titer
same,HI titer,[10],< 100 titer
same,HI titer,[11],800 titer
same,HI titer,[12],< 100 titer
same,HI titer,[13],12800 titer
same,HI titer,[14],6400 titer
same,HI titer,[15],200 titer
same,HI titer,[16],800 titer
same,HI titer,[17],1600 titer
same,HI titer,[18],6400 titer
same,HI titer,[19],12800 titer
same,HI titer,[20],12800 titer
same,HI titer,[21],< 100 titer
same,Neutralization titer,[22],12800 titer
same,Neutralization titer,[23],12800 titer
same,Neutralization titer,[24],12800 titer
same,Neutralization titer,[25],12800 titer
same,Neutralization titer,[26],12800 titer
same,Neutralization titer,[27],12800 titer
same,Neutralization titer,[28],12800 titer
same,Neutralization titer,[29],12800 titer
same,Neutralization titer,[30],100 titer
same,Neutralization titer,[31],12800 titer
same,Neutralization titer,[32],12800 titer
same,Neutralization titer,[33],12800 titer
same,Neutralization titer,[34],12800 titer
same,Neutralization titer,[35],12800 titer
same,Neutralization titer,[36],12800 titer
same,Neutralization titer,[37],1600 titer
same,Neutralization titer,[38],12800 titer
same,Neutralization titer,[39],100 titer
B2,HI titer,[1],12800 titer
same,HI titer,[2],6400 titer
same,HI titer,[3],12800 titer
same,HI titer,[4],12800 titer
same,HI titer,[5],3200 titer
same,HI titer,[6],12800 titer
same,HI titer,[7],12800 titer
same,HI titer,[8],6400 titer
same,HI titer,[9],6400 titer
same,HI titer,[10],12800 titer
same,HI titer,[11],1600 titer
same,HI titer,[12],3200 titer
same,HI titer,[13],6400 titer
same,HI titer,[14],12800 titer
same,HI titer,[15],6400 titer
same,HI titer,[16],3200 titer
same,HI titer,[17],3200 titer
same,HI titer,[18],1600 titer
same,HI titer,[19],12800 titer
same,HI titer,[20],12800 titer
same,HI titer,[21],6400 titer
same,binding result,[40],binds
same,binding result,[41],binds
same,Neutralization titer,[22],12800 titer
same,Neutralization titer,[23],800 titer
same,Neutralization titer,[24],12800 titer
same,Neutralization titer,[25],12800 titer
same,Neutralization titer,[42],12800 titer
same,Neutralization titer,[26],12800 titer
same,Neutralization titer,[27],12800 titer
same,Neutralization titer,[28],12800 titer
same,Neutralization titer,[29],6400 titer
same,Neutralization titer,[30],12800 titer
same,Neutralization titer,[31],6400 titer
same,Neutralization titer,[43],6400 titer
same,Neutralization titer,[32],12800 titer
same,Neutralization titer,[33],12800 titer
same,Neutralization titer,[34],3200 titer
same,Neutralization titer,[44],6400 titer
same,Neutralization titer,[35],6400 titer
same,Neutralization titer,[36],1600 titer
same,Neutralization titer,[37],1600 titer
same,Neutralization titer,[38],12800 titer
same,Neutralization titer,[39],6400 titer
same,binding result,[45],binds
same,binding result,[46],binds
same,binding result,[47],binds
